Positions count from the first letter of the chain named.

As usually defined, the IC50 is the concentration needed to halve the response being measured. Read a high IC50 as weaker potency. What is called EC50 is the concentration needed to bring the measured effect to its halfway point. Read a low EC50 as a more potent agent.

Assay [1] concerns the target T1, FcγRIIIa (CD16a) (UniProt P08637 17-254, limits assumed).
T1 construct: whole, on cells; also called Fcγ receptor III
Put plainly: competition with 3G8-PE for CD16 on NK cells, flow cytometry (second experiment). (A flow cytometer gives signals particle by particle.)

The target in assay [2] is T2, human CD303 antigen expressed on cells (human, UniProt Q8WTT0 1-213).
T2 construct: On Fcγ chain-CD303 Jurkat cells, CAL-1 cells, and CAL-1 cells transfected with a CD303 expression vector; also called BDCA-2; BDCA2
T2 sequence: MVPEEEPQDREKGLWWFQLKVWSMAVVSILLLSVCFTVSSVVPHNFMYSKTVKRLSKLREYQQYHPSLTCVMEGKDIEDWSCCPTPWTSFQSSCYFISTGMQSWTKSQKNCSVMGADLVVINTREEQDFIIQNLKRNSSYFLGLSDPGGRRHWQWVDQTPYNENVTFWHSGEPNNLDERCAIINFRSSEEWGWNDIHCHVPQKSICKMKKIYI
As to the kind of experiment: flow cytometry on Fcγ chain-CD303 Jurkat cells. Here is the method: (§1) The CD303-expressing cells and the antibodies are prepared in diluent (PBS+1% FCS). 1·10⁵ cells are incubated at 4° C. for 30 minutes with 100 μL of antibody (anti-CD303 or negative control) at various concentrations (0-40 μg/mL, final concentration).
(§2) After washing with the diluent, the antibodies are visualized by addition of a phycoerythrin (PE)-coupled goat anti-mouse IgG F(ab′)₂ fragment (100 μL diluted to 1:100 in the diluent) for 45 minutes at 4° C. The cells are then washed and analyzed by flow cytometry (FC500, Beckman Coulter).

Assay [3] concerns the target T2, human CD303 antigen expressed on cells. As to the kind of experiment: flow cytometry on CAL-1 cells (experiment with BIIB059). Here is the method: as §1, §2
Assay [4] has the same target. As to the kind of experiment: cell-based or functional assay.
The target is the same in assay [5]. Put plainly: cell-based or functional assay. This is another data set of the same source.
The target is the same in assay [6]. As to the kind of experiment: flow cytometry on CAL-1 cells transfected with CD303 (about 40,000-50,000 CD303/cell). The method, then:
as §1, §2

Assay [7] addresses T1, FcγRIIIa (CD16a). As to the kind of experiment: competition with 3G8-PE for CD16 on NK cells, flow cytometry.
Assay [8] has as its target T2, human CD303 antigen expressed on cells. Put plainly: cell-based or functional assay. The source holds these as a separate data set.
For assay [9] the target is unchanged. As to the kind of experiment: flow cytometry on CAL-1 cells. Here is the method: as §1, §2
Assay [10] has the same target. As to the kind of experiment: flow cytometry on CAL-1 cells, 0.1 µg/mL, supernatant. The method, then: The line used to carry out this technique, CAL-1, is a leukemic cell line of plasmacytoid dendritic cells obtained from a BPDCN patient. The antibodies produced were tested in supernatant, but also in forms purified by affinity chromatography with protein A-sepharose (not elaborated upon herein).
For cell staining, the cells and the antibodies are prediluted with PBS/1% FCS. In a 100 μL reaction volume, 1·10⁵ cells are incubated at 4° C. for 30 minutes with the anti-CD303 antibodies to be tested, at two concentrations: 0.1 μg/mL or 1 μg/mL. This incubation is followed with several washings. The cell/antibody complexes thus formed are then contacted for 30 minutes at 4° C. with the secondary antibody diluted 1:50, an anti-human IgG Fc F(ab′)₂ coupled to a fluorochrome, phycoerythrin. […] Various negative controls are used to eliminate possible nonspecific binding, such as: the cells alone or directly in contact with the secondary antibody, or replacing the antibody tested with an irrelevant chimeric antibody (factor VIII anti-idiotype).

T1 sequence (P08637 17-254 limits assumed): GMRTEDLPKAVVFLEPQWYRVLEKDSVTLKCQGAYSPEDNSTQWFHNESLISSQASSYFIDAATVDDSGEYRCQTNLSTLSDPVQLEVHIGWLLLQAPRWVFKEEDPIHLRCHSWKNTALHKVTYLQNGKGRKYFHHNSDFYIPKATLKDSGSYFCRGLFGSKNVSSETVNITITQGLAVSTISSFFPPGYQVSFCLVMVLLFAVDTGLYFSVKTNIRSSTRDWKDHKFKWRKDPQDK

B1: chimeric antibody 122A2 (antibody, human IgG1, kappa)
heavy: not shown
light: DIQMTQTTSSLSASLGDRVTISCRASQDISNYLNWYQQKPDGTVKLLIYYTSRLHSGVPSRFSGSGSGTDYSLTISNLDQEDIATYFCQQGNTLPWTFGGGTKLEIKRTVAAPSVFIFPPSDEQLKSGTASVVCLLNNFYPREAKVQWKVDNALQSGNSQESVTEQDSKDSTYSLSSTLTLSKADYEKHKVYACEVTHQGLSSPVTKSFNRGEC
notes: also called ch.122A2; ch122A2
For the molecule B1, the IC50 with FcγRIIIa (CD16a) [1] came to 13 µg/mL; with FcγRIIIa (CD16a) [7] it was 40.4 µg/mL. The “Bmax (MFI)” value was found to be 26.2 MFI in assay [2] and 25.2 MFI in [9]. Moreover, the EC50 came out at 0.128 µg/mL in assay [2], 0.06 µg/mL in assay [3], 0.142 µg/mL in assay [6] and 0.207 µg/mL in [9]. In assay [4], the “IC50 for IFN-α secretion from pDCs contained in PBMCs” value came to 0.959 ng/mL. Besides, the “ADCC EC50, CAL-1 target cells” value in assay [5] stood at 0.00093 µg/mL. For the same molecule, the “ADCC EC50, Fcγ chain-CD303 Jurkat target cells with NK cells” value in assay [8] was 0.000159 µg/mL. Besides, the “ADCC Emax (% lysis), Fcγ chain-CD303 Jurkat target cells with NK cells” value in [8] came out at 42.4 % lysis.

B2: chimeric antibody 102E9 (antibody, human IgG1, kappa)
heavy: not shown
light: QIVLTQSPAIMSASPGEKVTITCSASSSVIYIHWFQQKPGTSPKLWIYSTSYLASGVPARFSGSGSGTSYSLTISRMEAEDAATYYCQQRRSYPFTFGGGTKLEIKRTVAAPSVFIFPPSDEQLKSGTASVVCLLNNFYPREAKVQWKVDNALQSGNSQESVTEQDSKDSTYSLSSTLTLSKADYEKHKVYACEVTHQGLSSPVTKSFNRGEC
notes: also called ch.102E9
For B2, the IC50 with FcγRIIIa (CD16a) [1] came out at 13 µg/mL; with FcγRIIIa (CD16a) [7], 37 µg/mL. The results for the “Bmax (MFI)” value in assay [2] and in assay [9] were 24.9 MFI and 30.5 MFI, respectively. The EC50 stood at 3.87 µg/mL in assay [2], 0.44 µg/mL in [3], 0.363 µg/mL in assay [6] and 1.81 µg/mL in assay [9]. In addition, the “ADCC EC50, CAL-1 target cells” value in assay [5] stood at 0.0038 µg/mL. Also, the “ADCC EC50, Fcγ chain-CD303 Jurkat target cells with NK cells” value in assay [8] worked out at 0.00342 µg/mL. Moreover, in [8], the “ADCC Emax (% lysis), Fcγ chain-CD303 Jurkat target cells with NK cells” value worked out at 38.9 % lysis.

B3: humanized antibody 122A2H14 (antibody, human IgG1, kappa, V domains shown)
VH: QVQLQQSGAEVVKPGASVKISCKGSGYTFTDYSMHWVRQAHAKSLEWIGVISTYYGDSNYNQKFKGKVTMTVDTSSSTAYMELSRLRSDDTAVYYCARNGNFYVMDYWGQGTLVTVSS
VL: DIQMTQSTSSLSASLGDRVTITCQASQDISNYLNWYQQKPDGTVKLLIYYTSNLHTGVPSRFSGSGSGTDYSLTISNLQQEDIATYYCQQGNTLPWTFGGGTKLEIKR
As for B3, the binding result in assay [10] was “binds”.

B4: humanized antibody 122A2H15 (antibody, human IgG1, kappa, V domains shown)
VH: B3 VH with H41P, A42G, K43Q, S44G, T74K, R87T
VL: B3 VL
Turning to B4, the binding result in assay [10] was “binds”.

(Values after patent publication US20200277385A1 (LABORATOIRE FRANCAIS DU FRACTIONNEMENT ET DES …, published 2020).)
